B1: wildtype proline-rich (PR) domain of Gab1 (domain or fragment, human, UniProt Q13480 331-530, looked up)
chain: TSKLDTIPDIPPPRPPKPHPAHDRSPVETCSIPRTASDTDSSYCIPTAGMSPSRSNTISTVDLNKLRKDASSQDCYDIPRAFPSDRSSSLEGFHNHFKVKNVLTVGSVSSEELDENYVPMNPNSPPRQHSSSFTEPIQEANYVPMTPGTFDFSSFGMQVPPPAHMGFRSSPKTPPRRPVPVADCEPPPVDRNLKPDRKVK
B2: PR domain of Gab1 with the G1 motif mutated (domain or fragment, human, UniProt Q13480 331-530, looked up)
chain: TSKLDTIPDIPPPAPPAPHPAHDRSPVETCSIPRTASDTDSSYCIPTAGMSPSRSNTISTVDLNKLRKDASSQDCYDIPRAFPSDRSSSLEGFHNHFKVKNVLTVGSVSSEELDENYVPMNPNSPPRQHSSSFTEPIQEANYVPMTPGTFDFSSFGMQVPPPAHMGFRSSPKTPPRRPVPVADCEPPPVDRNLKPDRKVK
B3: PR domain of Gab1 with the G2 motif mutated (domain or fragment, human, UniProt Q13480 331-530, looked up)
chain: TSKLDTIPDIPPPRPPKPHPAHDRSPVETCSIPRTASDTDSSYCIPTAGMSPSRSNTISTVDLNKLRKDASSQDCYDIPRAFPSDRSSSLEGFHNHFKVKNVLTVGSVSSEELDENYVPMNPNSPPRQHSSSFTEPIQEANYVPMTPGTFDFSSFGMQVPPPAHMGFRSSPKTPPRRPVPVADCEPPPVDANLAPDRKVK

These binders were tested against wildtype full-length Grb2 (human, UniProt P62993 1-217) (assay: ITC).
Sequence of wildtype full-length Grb2 (P62993 whole entry): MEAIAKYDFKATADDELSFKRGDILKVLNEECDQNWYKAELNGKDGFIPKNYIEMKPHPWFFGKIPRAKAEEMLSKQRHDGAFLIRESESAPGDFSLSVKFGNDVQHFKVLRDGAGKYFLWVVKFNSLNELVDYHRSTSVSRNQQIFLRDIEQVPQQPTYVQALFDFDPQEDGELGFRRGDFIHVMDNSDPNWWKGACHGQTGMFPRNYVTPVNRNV
B1 was tested, and the Kd was 7.21 µM, the dH was -34.5 kcal/mol and the “stoichiometry N” value was 1.94. With B2 the Kd was 2.24 µM, the dH was -23.4 kcal/mol and the “stoichiometry N” value was 1.07. With B3 the Kd was 20.3 µM, the dH was -13.2 kcal/mol and the “stoichiometry N” value was 1.02.

From PMC3365654 (The Febs Journal, 2012)
